Test results published in US10562935B2, “Stapled peptides and uses thereof” (London Health Sciences Centre Research Inc., priority 2015, dated 2020).
Bridges are numbered along the chain shown (N, C = ends).

Assays:
[1] = system: RHAMM-overexpressing (LR21) cells; experiment: Cell migration assay (Boyden chamber, Chemicon ECM510); type: cell-based; settings: for inhibition of cell migration (in words): 10 ng/mL peptide, 20 hours, compared to 30% serum control; for Migration (% inhib.): % inhibition relative to positive control
Outline: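 Serum-starved LR21 cells (7.5×10^4) placed in the upper Boyden chamber with or without 10 ng/mL peptide, with 30% FBS in DMEM as lower-chamber chemoattractant. Cells crossing the membrane after 20 h quantified by CyQUANT GR fluorescence (480/520 nm); mean of n=3, compared with 30% serum control.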

[2] = Circular dichroism (CD) spectroscopy of linear and stapled peptides in water or 40% TFE/water (Example 3); type: physicochemical; settings: for [0]208 mean residue ellipticity: λ = 208 nm; for [0]222 mean residue ellipticity: λ = 222 nm
Outline: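 Spectra 180–260 nm at 20 °C, 0.5 mM N-acetylated, C-amidated peptides in 0.1M phosphate buffer (water) or 40% TFE/water, 1 mm path, five scans averaged, buffer baseline subtracted. Mean residue ellipticity reported at 222 and 208 nm with the 222/208 ratio as helicity index.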

[3] = system: RHAMM-overexpressing (LR21) cells; experiment: Cell invasion assay (Boyden chamber with MATRIGEL, Chemicon ECM555); type: cell-based; settings: for inhibition of cellular invasion (in words): 10 ng/mL peptide, 20 hours, compared to 30% serum control; for Invasion (% inhib.): % inhibition relative to positive control, 10 ng/mL of peptide
Method: Compounds 132, 133, 135, 150-153, 156, 265-269, and 275-278 were evaluated for their ability to inhibit cellular invasion. Invasion assays were performed using Chemicon Assay Kits ECM555 (Invasion); Billerica, Mass., USA) according to the manufacturer's protocol. Invasion assays are performed in an identical manner as the migration assays described above in Example 5, except that cells are required to invade through a layer of extracellular matrix (MATRIGEL) coating the filter that separates the upper and lower Boyden chambers. Briefly, sub-confluent cultures of RHAMM-overexpressing (LR21) cells were serum starved overnight before plating 7.5×10^4 cells in the upper chamber of a Boyden chamber either in the presence or absence of 10 ng/mL of peptide. 30% fetal bovine serum in DMEM was used as the chemo-attractant in the lower chamber. The number of cells that had crossed the membrane after 20 hours was assessed using the CYQUANT® GR Dye and lysis buffer solution provided in the kit. Fluorescence was measured with a fluorescent plate reader using 480/520 nm filter set.
Values the mean and SDM of n=3 replicates. *p<0.05, **p<0.01, ***p<0.001 All statistics compared to 30% serum control. In FIG. 49, where bars are labeled with two compound numbers (“152/135”) this means that the data were pooled for the indicated compound, i.e., for the non-acetylated and acetylated versions of the indicated peptide.

[4] = [θ]222/[θ]208 ratio in water, summary tables 15, 17, 19
[5] = as repeated in tables 16, 18, 20

## Ac-(cyclo-4,8)-VSK[ERSQK]VKRKQN-NH2 (Ac-VSKERSQKVKRKQN-NH2; lactam 4-8; SMILES CC(=O)N[C@H](C(=O)N[C@@H](CO)C(=O)N[C@@H](CCCCN)C(=O)N[C@H]1CCC(=O)NCCCC[C@@H](C(=O)N[C@H](C(=O)N[C@@H](CCCCN)C(=O)N[C@@H](CCCNC(=N)N)C(=O)N[C@@H](CCCCN)C(=O)N[C@@H](CCC(N)=O)C(=O)N[C@@H](CC(N)=O)C(N)=O)C(C)C)NC(=O)[C@H](CCC(N)=O)NC(=O)[C@H](CO)NC(=O)[C@H](CCCNC(=N)N)NC1=O)C(C)C) [Compound 150]
[1]
  inhibition of cell migration (in words): significantly inhibit cell migration
  Migration (% inhib.): 0 % inhib.
[2]; [4]
  [θ]222/[θ]208 ratio of ellipticities: 0.53
[2]; [5]
  [θ]222/[θ]208 ratio of ellipticities: 0.53
[2]; in 40% TFE/water
  [0]222/[0]208 ratio of ellipticities: 0.81
  [0]208 mean residue ellipticity: -1.21E+04 deg cm^2 dmol^−1
  [0]222 mean residue ellipticity: -9.75E+03 deg cm^2 dmol^−1
[2]; in water
  [0]222/[0]208 ratio of ellipticities: 0.53
  alpha-helical character by CD (in words): decreased helicity
  [0]208 mean residue ellipticity: -6.30E+03 deg cm^2 dmol^−1
  [0]222 mean residue ellipticity: -3.35E+03 deg cm^2 dmol^−1
[3]
  inhibition of cellular invasion (in words): significantly inhibited cellular invasion
  Invasion (% inhib.): 79 % inhib.

## Ac-(cyclo-5,9)-VSKL[ESQLK]KRKQN-NH2 (Ac-VSKLESQLKKRKQN-NH2; lactam 5-9; SMILES CC(=O)N[C@H](C(=O)N[C@@H](CO)C(=O)N[C@@H](CCCCN)C(=O)N[C@@H](CC(C)C)C(=O)N[C@H]1CCC(=O)NCCCC[C@@H](C(=O)N[C@@H](CCCCN)C(=O)N[C@@H](CCCNC(=N)N)C(=O)N[C@@H](CCCCN)C(=O)N[C@@H](CCC(N)=O)C(=O)N[C@@H](CC(N)=O)C(N)=O)NC(=O)[C@H](CC(C)C)NC(=O)[C@H](CCC(N)=O)NC(=O)[C@H](CO)NC1=O)C(C)C) [Compound 151]
[1]
  inhibition of cell migration (in words): significantly inhibit cell migration
  Migration (% inhib.): 59 % inhib.
[2]; [4]
  [θ]222/[θ]208 ratio of ellipticities: 0.70
[2]; [5]
  [θ]222/[θ]208 ratio of ellipticities: 0.70
[2]; in 40% TFE/water
  [0]222/[0]208 ratio of ellipticities: 0.82
  [0]208 mean residue ellipticity: -1.62E+04 deg cm^2 dmol^−1
  [0]222 mean residue ellipticity: -1.33E+04 deg cm^2 dmol^−1
[2]; in water
  [0]222/[0]208 ratio of ellipticities: 0.70
  alpha-helical character by CD (in words): alpha-helical character equal to that of the linear peptide
  [0]208 mean residue ellipticity: -9.25E+03 deg cm^2 dmol^−1
  [0]222 mean residue ellipticity: -6.45E+03 deg cm^2 dmol^−1
[3]
  Invasion (% inhib.): 0 % inhib.

## Ac-(cyclo-6,10)-VSKLR[EQLVK]RKQN-NH2 (Ac-VSKLREQLVKRKQN-NH2; lactam 6-10; SMILES CC(=O)N[C@H](C(=O)N[C@@H](CO)C(=O)N[C@@H](CCCCN)C(=O)N[C@@H](CC(C)C)C(=O)N[C@@H](CCCNC(=N)N)C(=O)N[C@H]1CCC(=O)NCCCC[C@@H](C(=O)N[C@@H](CCCNC(=N)N)C(=O)N[C@@H](CCCCN)C(=O)N[C@@H](CCC(N)=O)C(=O)N[C@@H](CC(N)=O)C(N)=O)NC(=O)[C@H](C(C)C)NC(=O)[C@H](CC(C)C)NC(=O)[C@H](CCC(N)=O)NC1=O)C(C)C) [Compound 152]
[1]
  inhibition of cell migration (in words): significantly inhibit cell migration
[2]; [5]
  [θ]222/[θ]208 ratio of ellipticities: 0.61
[2]; in 40% TFE/water
  [0]222/[0]208 ratio of ellipticities: 0.70
  [0]208 mean residue ellipticity: -1.50E+04 deg cm^2 dmol^−1
  [0]222 mean residue ellipticity: -1.19E+04 deg cm^2 dmol^−1
[2]; in water
  [0]222/[0]208 ratio of ellipticities: 0.61
  [0]208 mean residue ellipticity: -7.90E+03 deg cm^2 dmol^−1
  [0]222 mean residue ellipticity: -4.85E+03 deg cm^2 dmol^−1
[3]
  inhibition of cellular invasion (in words): significantly inhibited cellular invasion

## Ac-(cyclo-7,11)-VSKLRS[ELVKK]KQN-NH2 (Ac-VSKLRSELVKKKQN-NH2; lactam 7-11; SMILES CC(=O)N[C@H](C(=O)N[C@@H](CO)C(=O)N[C@@H](CCCCN)C(=O)N[C@@H](CC(C)C)C(=O)N[C@@H](CCCNC(=N)N)C(=O)N[C@@H](CO)C(=O)N[C@H]1CCC(=O)NCCCC[C@@H](C(=O)N[C@@H](CCCCN)C(=O)N[C@@H](CCC(N)=O)C(=O)N[C@@H](CC(N)=O)C(N)=O)NC(=O)[C@H](CCCCN)NC(=O)[C@H](C(C)C)NC(=O)[C@H](CC(C)C)NC1=O)C(C)C) [Compound 153]
[1]
  Migration (% inhib.): 0 % inhib.
[2]; [4]
  [θ]222/[θ]208 ratio of ellipticities: 0.54
[2]; [5]
  [θ]222/[θ]208 ratio of ellipticities: 0.54
[2]; in 40% TFE/water
  [0]222/[0]208 ratio of ellipticities: 0.74
  [0]208 mean residue ellipticity: -1.02E+04 deg cm^2 dmol^−1
  [0]222 mean residue ellipticity: -8.53E+03 deg cm^2 dmol^−1
[2]; in water
  [0]222/[0]208 ratio of ellipticities: 0.54
  alpha-helical character by CD (in words): decreased helicity
  [0]208 mean residue ellipticity: -6.79E+03 deg cm^2 dmol^−1
  [0]222 mean residue ellipticity: -3.68E+03 deg cm^2 dmol^−1
[3]
  inhibition of cellular invasion (in words): significantly inhibited cellular invasion
  Invasion (% inhib.): 58 % inhib.

## Ac-(cyclo-7-11, cyclo-28-32)-NLKQKI[EHVVK]LKDENSQLKSEVSKLR[EQLVK]RKQN-NH2 (Ac-NLKQKIEHVVKLKDENSQLKSEVSKLREQLVKRKQN-NH2; lactam 7-11, 28-32; SMILES CC[C@H](C)[C@H](NC(=O)[C@H](CCCCN)NC(=O)[C@H](CCC(N)=O)NC(=O)[C@H](CCCCN)NC(=O)[C@H](CC(C)C)NC(=O)[C@H](CC(N)=O)NC(C)=O)C(=O)N[C@H]1CCC(=O)NCCCC[C@@H](C(=O)N[C@@H](CC(C)C)C(=O)N[C@@H](CCCCN)C(=O)N[C@@H](CC(=O)O)C(=O)N[C@@H](CCC(=O)O)C(=O)N[C@@H](CC(N)=O)C(=O)N[C@@H](CO)C(=O)N[C@@H](CCC(N)=O)C(=O)N[C@@H](CC(C)C)C(=O)N[C@@H](CCCCN)C(=O)N[C@@H](CO)C(=O)N[C@@H](CCC(=O)O)C(=O)N[C@H](C(=O)N[C@@H](CO)C(=O)N[C@@H](CCCCN)C(=O)N[C@@H](CC(C)C)C(=O)N[C@@H](CCCNC(=N)N)C(=O)N[C@H]2CCC(=O)NCCCC[C@@H](C(=O)N[C@@H](CCCNC(=N)N)C(=O)N[C@@H](CCCCN)C(=O)N[C@@H](CCC(N)=O)C(=O)N[C@@H](CC(N)=O)C(N)=O)NC(=O)[C@H](C(C)C)NC(=O)[C@H](CC(C)C)NC(=O)[C@H](CCC(N)=O)NC2=O)C(C)C)NC(=O)[C@H](C(C)C)NC(=O)[C@H](C(C)C)NC(=O)[C@H](Cc2c[nH]cn2)NC1=O) [Compound 278]
[1]
  inhibition of cell migration (in words): significantly inhibit cell migration
  Migration (% inhib.): 45 % inhib.
[2]; 40% TFE/water
  [0]208 mean residue ellipticity at λ=208 nm: -2.44E04 deg cm^2 dmol^−1
  [0]222/[0]208 ratio of ellipticities: 0.86
  [0]222 mean residue ellipticity at λ=222 nm: -2.12E04 deg cm^2 dmol^−1
[2]; [4]
  [θ]222/[θ]208 ratio of ellipticities: 0.74
[2]; [5]
  [θ]222/[θ]208 ratio of ellipticities: 0.74
[2]; in water
  [0]222/[0]208 ratio of ellipticities: 0.74
  alpha-helical character by CD (in words): greatest alpha-helical character
[2]; water
  [0]208 mean residue ellipticity at λ=208 nm: -1.33E+04 deg cm^2 dmol^−1
  [0]222/[0]208 ratio of ellipticities: 0.74
  [0]222 mean residue ellipticity at λ=222 nm: -9.95E+03 deg cm^2 dmol^−1
[3]
  Invasion (% inhib.): 0 % inhib.
